{"source": "patent US20210139568A1", "about": "(AXON NEUROSCIENCE, published 2021)", "key": {"[1]": {"biological_target": "T1, in vitro phosphorylated tau 2N4R point mutant Thr217Ala (human, UniProt P10636 1-758, phosphorylated in vitro with rat brain kinase extract; sites not listed)", "T1 construct": "also called Thr217A1a", "T1 sequence (P10636 other isoform, or with tags, fused parts or gaps T217A T217A limits assumed)": "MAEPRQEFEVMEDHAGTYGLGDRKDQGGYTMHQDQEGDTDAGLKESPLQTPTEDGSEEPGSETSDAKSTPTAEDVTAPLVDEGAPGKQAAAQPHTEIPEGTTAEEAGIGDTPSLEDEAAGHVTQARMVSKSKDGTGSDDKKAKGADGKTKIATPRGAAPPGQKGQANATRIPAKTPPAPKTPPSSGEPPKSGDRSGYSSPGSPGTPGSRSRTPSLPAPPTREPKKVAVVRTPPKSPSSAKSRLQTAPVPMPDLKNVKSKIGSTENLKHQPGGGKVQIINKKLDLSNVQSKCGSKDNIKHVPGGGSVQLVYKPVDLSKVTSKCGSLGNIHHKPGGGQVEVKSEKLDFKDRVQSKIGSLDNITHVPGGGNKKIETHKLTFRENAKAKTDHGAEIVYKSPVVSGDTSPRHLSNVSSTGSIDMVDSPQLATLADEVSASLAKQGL", "assay": "immunoblot of in vitro phosphorylated tau 2N4R point mutants", "procedure": "Soluble tau proteins were diluted with an equal volume of 2×SDS (sodium dodecylsulfate) sample loading buffer (with β-mercaptoethanol) (Laemmli, 1970) and 250 ng of proteins were loaded per lane. For insoluble PHF-tau, the pellets were dissolved in 1×SDS-sample loading buffer, in 1/50 volume of the soluble fraction used for the preparation of the insoluble tau fraction. Then, equal volumes of soluble tau and sarkosyl-insoluble tau fractions were used for immunoblotting, which corresponded to 15 μg of total protein in the soluble fraction (see Filipcik et al. 2010). Samples were heated at 95° C. for 5 min, loaded onto 5-20% gradient SDS polyacrylamide gels, and electrophoresed in a Tris-glycine-SDS buffer system for 40 minutes at 25 mA. Proteins were transferred to a polyvinylidene fluoride (PVDF) membrane (1 h at 150 mA in 10 mM CAPS, pH 12). […] The blots were developed with SuperSignal West Pico Chemiluminescent Substrate (Pierce, U.S.A), and the protein signals detected using a LAS3000 imaging system (FUJI Photo Film Co., Japan). The chemiluminescence signal intensities were quantified using AIDA (Advanced Image Data Analyzer, Raytest, Straubenhardt, Germany) software. […]"}, "[2]": {"biological_target": "in vitro phosphorylated tau deletion mutant tau 221-441 (human, UniProt P10636 538-758, phosphorylated in vitro with rat brain kinase extract; sites not listed)", "sequence (P10636 other isoform, or with tags, fused parts or gaps mutant)": "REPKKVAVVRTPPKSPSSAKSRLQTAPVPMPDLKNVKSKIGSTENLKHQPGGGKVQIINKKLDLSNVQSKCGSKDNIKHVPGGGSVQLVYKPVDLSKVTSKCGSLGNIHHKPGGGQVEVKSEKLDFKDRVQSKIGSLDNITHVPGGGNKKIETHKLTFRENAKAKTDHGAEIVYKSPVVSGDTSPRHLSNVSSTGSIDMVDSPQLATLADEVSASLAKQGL", "assay": "immunoblot of in vitro phosphorylated tau deletion mutants"}}}
{"binder": "monoclonal antibody DC2E7 (antibody, mouse IgG2a, V domains shown, also called DC217 (apparent misprint)) VH: DVQLVESGGGLVQPGGSRKLSCAASGFTFSSFGMHWVRQAPEKGLEWVAYISGDSNTIYYADTVKGRFTISRDNPKNTLFLQMTSLRSEDTAIYYCARTLAYWGQGTLVTVS VL: DIQMTQSSSSFSVSLGDRVTITCKASEDIYNRLAWYQQTPGNAPSLLISGASGLETGVPSRFSGSGSGRDYTLSITSLQTEDVATYYCLQYWSIPWTFGGGTKLEIKR", "values": [{"measurement": "binding result", "setting": "[1]", "result": "no binding"}, {"measurement": "binding result", "setting": "[2]", "result": "no binding"}]}
